According to patent US20150118184A1 (Chugai, published 2015):
Numbering of substitutions follows the chain as printed.

T1: mouse LAMP5 having a V5 tag added to the N-terminal thereof, expressed on CHO cells (mLAMP5 CHO) (mouse, UniProt Q9D387 30-280)
T1 construct: also called mouse-origined LAMP5; V5-mLAMP5
T1 sequence: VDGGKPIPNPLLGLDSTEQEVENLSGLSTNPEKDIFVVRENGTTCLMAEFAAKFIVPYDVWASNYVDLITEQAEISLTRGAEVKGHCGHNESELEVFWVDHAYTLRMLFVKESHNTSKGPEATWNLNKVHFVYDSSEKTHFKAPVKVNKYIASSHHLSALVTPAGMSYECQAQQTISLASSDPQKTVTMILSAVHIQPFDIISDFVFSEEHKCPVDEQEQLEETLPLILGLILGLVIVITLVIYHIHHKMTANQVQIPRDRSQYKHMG

T2: LAMP5 (endogenous, on KHM-1B multiple myeloma cells and in cancer cell line lysates) (human, UniProt Q9UJQ1 30-280)
T2 construct: Endogenous LAMP5 of the cell lines; also called BAD-LAMP; C20orf103
T2 sequence: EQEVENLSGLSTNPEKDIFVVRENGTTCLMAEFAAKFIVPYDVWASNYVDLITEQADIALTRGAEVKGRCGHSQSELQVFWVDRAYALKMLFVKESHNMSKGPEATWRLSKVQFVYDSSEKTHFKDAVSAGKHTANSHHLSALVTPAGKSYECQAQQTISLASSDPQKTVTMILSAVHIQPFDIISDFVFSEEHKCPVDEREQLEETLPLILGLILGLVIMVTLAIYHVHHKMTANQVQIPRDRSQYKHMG

B1: anti-LAMP5 monoclonal antibody D1 (antibody, mouse IgG1, V domains shown)
VH: EIQLQQSGPDLVKPGASVKVSCKASGFAFSTYNMYWVKQSHGKSLEWIGYIDPYNGDITYNQKFKGKATLTVDKSSSTAYMHLNSLTSEDSAVYYCARRDYFYAMDYWGQGTSVTVSS
VL: DIVMTQSHKFMSTSVGDRVSITCKASQGVGTAVAWYQQKPGQSPKLLIYWASTRHTGVPDRFTGSGSGTDFTLSVTNVQSEDLADYFCHQYSSYPLTFGSGTKLELK
notes: also called clone D1; D1 antibody
B2: anti-LAMP5 monoclonal antibody D9 (antibody, V domains shown)
VH: EVKLVESGGGLVKPGGSLKLSCAASGFTFSSYAMSWVRQTPEKRLEWVASISSGGSTYYPDSVKGRFTISRDNARNILYLQMSSLRSEDTAMYYCARLITTRFAYWGQGTLVTVSA
VL: ENVLTQSPAIMSASPGEKVTMTCRASSSVSSSYLHWYQQKSGASPKLWIYSTSNLASGVPARFSGSGSGTSYSLTISSVEAEDAATYYCQQYSGYPLTFGSGTKLEIK
notes: also called clone D9; D9 antibody
B3: anti-LAMP5 monoclonal antibody D10 (antibody, V domains shown)
VH: B1 VH with D10E, F27Y, S30T, T31S, D57G, T59S
VL: B1 VL with S74T, V75I, H89Q
notes: also called clone D10; D10 antibody
B4: anti-LAMP5 monoclonal antibody D2 (antibody, mouse IgG1, V domains shown)
VH: EVKLEESGGGLVQPGGSMKLSCTASGFTFSDAWMDWVRQSPEKGLEWVAEIRGKADNHATYYAESVKGRFTISRDDSKSSVYLQMNSLRTEDTAIYYCIPYYRYAMDYWGQGTSVTVSS
VL: QIVLTQSPAIMSASPGEKVTITCTASSSVSYMHWFQQKPGTSPKLWIYATSYLASGVPTRFSGSGSGTSYSLTISRMEAEDAATYYCQQKSNYPWTFGGGTNLEIK
notes: also called clone D2; D2 antibody

Molecular target: T1, mouse LAMP5 having a V5 tag added to …
Experiment: FACS on mLAMP5 CHO cells, FITC anti-mouse IgG
Method: (§1) Binding of the anti-LAMP5 monoclonal antibody produced in Example 2 to LAMP5 and mLAMP5 was evaluated by FACS. First, LAMP5 CHO (Example 2) or mLAMP5 CHO was suspended in FACS/PBS (PBS(−) comprising 0.2% bovine serum albumin (BSA) and 0.1% sodium azide) followed by disseminating into the wells of a 96-well round bottom plate at 5×10⁴ cells per well. After adding anti-LAMP5 monoclonal antibody to each well to a final concentration of 10, 2, 0.4, 0.08 or 0.016 μg/ml, the mixture was allowed to react for 1 hour on ice. After reacting, the cell suspensions were washed with FACS/PBS and allowed to react for 1 hour with FITC-labeled anti-mouse IgG antibody on ice. After reacting, the cells were washed with FACS/PBS and then suspended in FACS/PBS comprising 10 μg/ml of propidium iodide (Sigma-Aldrich Co. LLC.). The staining intensity of the cells was measured with a flow cytometer. Only viable cells not stained with propidium iodide were used in data analysis. As a result, clones D1, D2, D9 and D10 all bound concentration-dependently to LAMP5 (FIG. 2A). Clones D1, D2 and D10 in particular bound strongly in comparison with clone D9 (FIG. 2A). […] Clone D10 only bound weakly to mLAMP5 (FIG. 2B).

Row | Binder | binding result
1 | B1 | no binding (tested: 10 µg/ml (highest concentration tested))
2 | B2 | no binding (tested: 10 µg/ml (highest concentration tested))

Molecular target: T2, LAMP5 (endogenous, on KHM-1B multiple …)
Experiment: FACS on KHM-1B cells with or without IL-6 stimulation, 10 µg/mL antibody
Method: as §1
Next, LAMP5 expression was measured by FACS in KHM-1B cells (with or without IL-6 stimulation). FACS was carried out in the same manner as Example 4 using anti-LAMP5 monoclonal antibodies D1, D2, D9 and D10 and a negative reference in the form of IgG1κ (Pharmingen Inc., Cat. No. 553447) at concentrations of 10 μg/mL. As a result, LAMP5 was detected on the cell membrane of KHM-1B cells, and the expressed amount thereof was confirmed to be increased by IL-6 stimulation (FIG. 4).

Row | Binder | binding result
3 | B1 | binds
4 | B3 | binds
5 | B2 | binds
6 | B4 | binds
